This test has as its target the mutants of both surface loops (39-loop and 60-loop mutants of FXa). Briefly: prothrombinase activity titration.

As for “factor Va (thrombin activated factor V) (from UniProt P12259 29-737; P12259 1574-2224) (complex)”, the Kd – broadly, the equilibrium constant for the complex coming apart – fell in the range of 1 to 2 nM.
